Experimental data taken from the nanobody polyreactivity screen of Harvey et al. (2022).

assay: yeast display, Sf9 membrane polyspecificity reagent, FACS + sequencing; frameworks hold sequencing errors
Outline: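 Sorting gates, low and high (top ~1%), were placed on anti-HA fluorescence to track expression and on streptavidin fluorescence to track reagent binding. A clone's polyreactivity label is taken from the gate it came out of. The reagent was 10% biotinylated, detergent-solubilized Sf9 membrane, applied for 1 hour at 4 °C to galactose-induced yeast display cells.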

| Sequence | polyreactivity (PSR sort gate) |
| --- | --- |
| QVQLVESGGGLVQAGGSLRLSCAASGRTFRINAMGWYRQAPGKERELVAAITSGGRTNYADSVKGRFTISRDNAKNTVYLQMNSLKPEDTAVYYCAADTTHWYYLGYGYWGQGTQVTVSS | low polyreactivity |
| QVQLVESGGGLVQAGGSLRLSCAASGRTFRINAMGWYRQAPGKEREMVAAIRSRAGSTYYADSVKGRFTISRDNAKNTVYLQMYSLKPEDTAVYYCAAKFPFDVDYWGQGTQVTVSS | high polyreactivity |
| QVQLVESGGGLVQAGGSLRLSCAASGRTFRINTMGWYRQAPGKERELVATITGSGGSTYYADSVKGRFTISRDNANNTVYLQMNSLKPEDTAVYYCAAFGDQNEYDYWGQGTQVTVSS | low polyreactivity |
| QVQLVESGGGLVQAGGSLRLSCAASGRTFRKNAMGWYRQAPGKERELVAAISDTGGSTYYADSVKGRFTISRDNAKNTVYFQMNSLKTEDTAVYYCAATVRYRGFYYWGQGTQVTVSS | high polyreactivity |
| QVQLVESGGGLVQAGGSLRLSCAASGRTFRKYAMGWYRQAPGKERELVAAINKSGGTTYYADSVKGRFTISRDNAKNTVYLQMNSLNPEDTAVYYCAADFYYYSYHSGQAPYDYWGQGTQVTVSS | high polyreactivity |
| QVQLVESGGGLVQAGGSLRLSCAASGRTFRKYAMGWYRQAPGKERELVAAITTSGARTYYADSVKGRFTISRDNAKNTVYLQMNSLKPEDTAVYYCNAVIPYYGIEFDYWGQGTQVTVSS | high polyreactivity |
| QVQLVESGGGLVQAGGSLRLSCAASGRTFRLYAMGWYIQAPGKERELVAAISSTGSTYYADSVKGRFTISLDNAKNTVYLQMNSLKPEDTAVYYCNAKLPVTSLKFDYYYWGQGSQVTVSS | high polyreactivity |
| QVQLVESGGGLVQAGGSLRLSCAASGRTFRLYAMGWYRQAPGKERELVAAIDGNGGSTYYADSVKGRFTISRDNAKNTVYLQMNSLKPEDTAVYYCAVSVSVYLDYRRDHQRGYDYWGQGTQVTVSS | low polyreactivity |
| QVQLVESGGGLVQAGGSLRLSCAASGRTFRLYAMGWYRQAPGKERELVAAISWRGGSTYYADSVKGRFTISRDNAKNTVYLQMNSLKPEDTAVYYCAAGTSRHLSNGYYYWGQGTQVTVSS | high polyreactivity |
| QVQLVESGGGLVQAGGSLRLSCAASGRTFRLYAMGWYRQAPGKERELVAAITRGGRTNYADSVKGRFTISRDNAKNTVYLQMNSLKPEDTAVYYCATDLVGAGVKGVRFVGRYRGDYWGQGTQVTVSS | low polyreactivity |
| QVQLVESGGGLVQAGGSLRLSCAASGRTFRLYAMGWYRQAPGKERQLVAAIDGNGGSTYYADSVKGRFTISRDNAKNTVYLQMNSLKPEDTAVYYCAVSVSVYLDYRRDHQRGYDYWGQGTQVTVSS | low polyreactivity |
| QVQLVESGGGLVQAGGSLRLSCAASGRTFRNNAMGWYRQAPGKEREFVAVISNTGGSTYYADSVKGRFTISRDNAKNTVYLQMNSLKPEDTAVYYCAVRPRYSQYYYWGQGTQVTVSS | high polyreactivity |
| QVQLVESGGGLVQAGGSLRLSCAASGRTFRNNAMGWYRQAPGKERELVAAISSRGGSTYYADSVKGRFTISRDNAKNTVYLQMNSLKPEDTAVYYCADDHSRYGDYWGQGTQVTVSS | high polyreactivity |
| QVQLVESGGGLVQAGGSLRLSCAASGRTFRNYAMGWYRQAPAKERELVAAITWSGGSTYYADSVKGRFTISRDNSKNTVYLQMYSLKPEDTAVYYCNVRSYTRTYNYWGQGTQVTVSS | high polyreactivity |
| QVQLVESGGGLVQAGGSLRLSCAASGRTFRNYAMGWYRQAPGKERELVAGITYSGGSTFYADSVKGRFTISRDNAKNTVYLQMNSLKPEDAAVYYCAAVYVPYYWLGRSRGLDYWGQGTQVTVSS | high polyreactivity |
| QVQLVESGGGLVQAGGSLRLSCAASGRTFRPNAMGWYRQAPGKERELVAAISRRGGSTNYADSVKGRFTISRDNAKNTVYLQMNSLKPEDTAVYYCNSRGRRGYDYWGQGTQVTVSS | high polyreactivity |
| QVQLVESGGGLVQAGGSLRLSCAASGRTFRRNAMGWYRQAPGKERELVASINRGGGTNYADSVKGRFTISRDNAKNTVYLQMNSLKPEDTAVYYCAAGPGTYWGYDYWGQGTQVTVSS | low polyreactivity |
| QVQLVESGGGLVQAGGSLRLSCAASGRTFRRNAMGWYRQAPGQERELVAGIRKRGGSTYYADSVKGRFTISRDNAKNTVYLQMNSLKPQDTAVYYCAAQPALTYRFYYWGQGTQVTVSS | high polyreactivity |
| QVQLVESGGGLVQAGGSLRLSCAASGRTFRRYAMGWYRQAPGKERELVAAISGDGSTHYADSVKGRFTISRDNAKNTVYLQMNSLKPEDTAVYYCAADYTDWYYVNYPAAPYRYDYWGQGTQVTVSS | high polyreactivity |
| QVQLVESGGGLVQAGGSLRLSCAASGRTFRRYAMGWYRQAPGKERELVAAISSSTGRTYYADSVKGRFTISRDTAKNTVYLQMNSLKPEDTAVYYCNAVHRYERDYWGQGTQVTVSS | high polyreactivity |
| QVQLVESGGGLVQAGGSLRLSCAASGRTFRRYVMGWYRQAPGKERELGAAITGSGGSTYYADSVKGRFTISRDNAKNTVYLQMNSLKPEDTAVYYCAADGICFYRSYGYDYWGQGTQVNVSS | high polyreactivity |
| QVQLVESGGGLVQAGGSLRLSCAASGRTFRRYVMGWYRQAPGKERELVASITRGTGTDYADSVKGRFTISRDNAKNTVYLQMNSLKPEDTAVYYCNAEVKGFFYDYDYWGQGTQVTVSS | low polyreactivity |

| Sequence | polyreactivity (PSR sort gate) |
| --- | --- |
| QVQLVESGGGLVQAGGSLRLSCAASGRTFRSNAMGWYRQAPGKEREFVAAISGRGGITYYADSVKGRFTISRDNAKNTVYLQMNSLKPEDTAVYYCNADYWQAGDYLYYFVYYGGYDYWGQGTQVTVSS | low polyreactivity |
| QVQLVESGGGLVQAGGSLRLSCAASGRTFRSNAMGWYRQAPGKERELVAAITASGGNTYYADSVKGRFTISRDNAKNTVYLQMNSLKPEDTAVYYCAAVSRYNYGTNPYYYWGQGTQVNVSS | high polyreactivity |
| QVQLVESGGGLVQAGGSLRLSCAASGRTFRSNAMGWYRQAPGKERELVATISGRGGSTYYADSVKGRFTISRDNAKNTVYLQMNSLKPEDTAVYYCNAYSVRLSGAELNYWGQGTQVTVSS | high polyreactivity |
| QVQLVESGGGLVQAGGSLRLSCAASGRTFRSNAMGWYRQAPGKERELVATISRRGVSTYYADSVKGRFTISRDNAKNTVYLLMNSLKPEYTAVYYCTLNVGTTSRWSYDYWGQGNQVTVSS | high polyreactivity |
| QVQLVESGGGLVQAGGSLRLSCAASGRTFRSYAMGWYRQAPGKERELVAAINTNGGSTYYADSVKGRFTISRDNAKNTVYLQMNSLKPEDTAVYYCRAWAQNQFNYWGQGTQVTVSS | high polyreactivity |
| QVQLVESGGGLVQAGGSLRLSCAASGRTFRSYAMGWYRQAPGKERELVAAISWTGGSTYYADSVKGRFTISRDNAKNTVYLQMNSLKPEDTAVYYCAVRYRGYGYDWGQGTQVTVSS | high polyreactivity |
| QVQLVESGGGLVQAGGSLRLSCAASGRTFRTNAMGWYRQAPGKEPELVAAISRGGGSTYYADSVKGRFTISRDNAKNTVYLQMNSLKPEDTAVYDCNALRNGIAFGAMDYWGQGTQVNVSS | high polyreactivity |
| QVQLVESGGGLVQAGGSLRLSCAASGRTFRTYAMGWYRQAPGKERELVAVITVNSASTYYADSVKGRFTISRDYAKNTVYLQMKSLKPEDTAVYYCADYFIYGYWGQGTQVTVSS | low polyreactivity |
| QVQLVESGGGLVQAGGSLRLSCAASGRTFRTYTMGWYRQAPGKEREFVAAITSSGASTYYADSVKGRFTISRDNAKNTVYLQKNSLKPEDTAFYYCAARYGRRLVWVPALLYDYWGQGTQVTVSS | high polyreactivity |
| QVQLVESGGGLVQAGGSLRLSCAASGRTFRTYTMGWYRQAPGKERELVAAITSTGSTYYADSVKGRFTISRDNAKNTVYLQMNSLKPEDTAVYYCAAVYVAVGLVYEKYDYWGQGTQVTVSS | high polyreactivity |
| QVQLVESGGGLVQAGGSLRLSCAASGRTFRVYAMGWYRQAPGKEREFVAAISYSGGRTYYADSVKGRFTISRDNAKNTVYLQMNSLKPEDTAVYYCAAKTNRGSYSYDYWGQGTQVTVSS | high polyreactivity |
| QVQLVESGGGLVQAGGSLRLSCAASGRTFRVYAMGWYRQAPGKERELVAAISWSDGSTYYADSVKGRFTISRDYAKNTVYLQMNSLKPEDTAVYYCNARVRVPVTLHDYWGQCTQVTVSS | high polyreactivity |
| QVQLVESGGGLVQAGGSLRLSCAASGRTFRWYAMGWYRKAPGKEWELVAAISYRGGSTYADSVKGRFTISRDNEKNTVNLQMNSLKPEDTAVYYCAAKYYDYGPYYYWGQGTQETVSS | high polyreactivity |
| QVQLVESGGGLVQAGGSLRLSCAASGRTFRWYAMGWYRQAPGKERELVASITWSGGSTYYADSVKGRFTISRDNAKNSVYLQMNSLKPEDTAVYYCNRVLGVSLYEGNYWGQGTQVTVSS | high polyreactivity |
| QVQLVESGGGLVQAGGSLRLSCAASGRTFRYAMGWYRQSPGKERELVAGITTRGTSTYYADSVKGRFTISRDNAKNTVYLQMNSLKPEDTAVYYCNARPARAVYIHTPTYRYDYWGQGTQVTVSS | high polyreactivity |
| QVQLVESGGGLVQAGGSLRLSCAASGRTFRYNAMGWYRQAPGKERELVAAINWNGGSTYYADSVKGRFTISRDNAKNTVYLQMNSLKPEDTAVYYCNADFYHRYDWGQGTQVTVSS | high polyreactivity |
| QVQLVESGGGLVQAGGSLRLSCAASGRTFRYNAMGWYRQAPGKERELVAAISRSGGRTYYADSVKGRFTISRDNAKNTVYLQMNSLKPEDTAVYYCNAAPSWSTSFDSWGQGTQVTVSS | high polyreactivity |
| QVQLVESGGGLVQAGGSLRLSCAASGRTFRYNAMGWYRQATGKVRELVAAISGRGSSTYYADSVKGRFTISRDNAKNTVYLQMNSLKPDDTAVYYCAALPASVRRPGWHDYWGQGTQVTVSS | high polyreactivity |
| QVQLVESGGGLVQAGGSLRLSCAASGRTFRYNPMVWYRQAPGKERELVAAITWSGGSTYYADSVKGRFKISRDNAKNTVYLQMNSLKPEDTAVYYCNRRYYAYDWGQGTQVTVSS | high polyreactivity |
| QVQLVESGGGLVQAGGSLRLSCAASGRTFRYNVMGWYRQAPGKERELVAAIRKRSGSTYYADSVKGRFTISRDNAKNTVYLQMISLKPEDTAVYYCNTEYHYGTASASDYWGQGTQVTVSS | high polyreactivity |
| QVQLVESGGGLVQAGGSLRLSCAASGRTFRYYAIGWYRQAPGKERELVATISKSGGSTYYADSVKGRFTISRDNAKNTVYLQMNSLKPEDTAVYYCAAVGPYRWYDYWGQGTQVTVSS | high polyreactivity |
